Earlier results on one substance are cited in paper PMC3791513.

The target of the series is GPR77 (Homo sapiens) (UniProt Q9P296).
GPR77 (Homo sapiens), sequence (Q9P296 whole entry): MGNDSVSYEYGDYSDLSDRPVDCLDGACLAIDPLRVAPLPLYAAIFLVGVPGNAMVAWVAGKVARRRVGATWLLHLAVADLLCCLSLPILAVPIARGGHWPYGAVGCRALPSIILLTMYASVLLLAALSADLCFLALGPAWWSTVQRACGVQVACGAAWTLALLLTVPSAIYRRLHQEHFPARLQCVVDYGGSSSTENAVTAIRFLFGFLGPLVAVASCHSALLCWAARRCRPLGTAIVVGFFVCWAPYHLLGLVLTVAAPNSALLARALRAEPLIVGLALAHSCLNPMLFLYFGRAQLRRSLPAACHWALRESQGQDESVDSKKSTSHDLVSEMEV

complement anaphylatoxin C5a C5a, sequence (P01031 675-754): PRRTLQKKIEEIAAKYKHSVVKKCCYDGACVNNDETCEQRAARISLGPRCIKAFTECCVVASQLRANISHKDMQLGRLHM

Regarding “complement anaphylatoxin C5a C5a (from UniProt P01031)”, the Kd is 2.5 nM.

The Kd is the free concentration of one partner at which half of the binding sites on the other are occupied at equilibrium, for simple one-to-one binding.
